Reference: the nanobody polyreactivity screen of Harvey et al. (2022)

experiment: yeast display, Sf9 membrane polyspecificity reagent, FACS + sequencing; frameworks hold sequencing errors
In short: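 Genes from sorted yeast were amplified by colony PCR, read by MiSeq 2 × 250 sequencing and filtered on CDR length. These cells carried a synthetic nanobody library in Saccharomyces cerevisiae BJ5465 and were sorted by FACS into low and high (top ~1%) gates on anti-HA and streptavidin fluorescence. Polyreactivity is labelled according to the gate of origin.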

Question: With “QVQLVESGGRLVQAGGSLRLSCAASGIPFEYYAMGWYRQAPGKERELVAAIDTGGSTNYADSVKGRFTISRDNAKNTVYLQMNSLKPEDTAVYYCAADWSWWDGEDYHFEYDYWGQGTQVTVSS” as the sequence, how does the “polyreactivity (PSR sort gate)” value read?
Answer: low polyreactivity

Question: With “QVQLVESGGRLVQAGGSLRLSCAASGLIYSRYAMGGYRQAPGKEREFVATISWSGGSRYYADSVKGRFTISRDNAKNTVYLQMNSLKPEDTAVYYCATKKWYYPGDSKYYYWGQGTQVTVSS” as the sequence, how does the “polyreactivity (PSR sort gate)” value read?
Answer: high polyreactivity

Question: For “QVQLVESGGRLVQAGGSLRLSCAASGLTFGRYAMGWYSQAPGKERELVASISQRGGSSYYADSVKGRFTISRDNAKNTVFLQMNSLKPEDTAVYYCNARVRDIYRYSMDSWGQGTQVTVSS”, which “polyreactivity (PSR sort gate)” value is on record?
Answer: low polyreactivity

Question: For “QVQLVESGGRLVQAGGSLRLSCAASGLTFSGYAMGWYRQAPGKERELVAAISGGGGSTYYADSVKGRFTISRDNAKNTVYLQMNSLKPEDTAVYYCAARPRWYTYTRQEYDYWGQGTQVTVSS”, which “polyreactivity (PSR sort gate)” value is on record?
Answer: high polyreactivity

Question: For “QVQLVESGGRLVQAGGSLRLSCAASGRIFASNAMGWYRQAPGKERELVAAITTTGGSTYYADSVKGRFTISRDNAKNTVYLQMNSLKPEDTAVYYCAARAIPRVRRYGSMNYWGQGTQVTVSS”, which “polyreactivity (PSR sort gate)” value is on record?
Answer: high polyreactivity

Question: For “QVQLVESGGRLVQAGGSLRLSCAASGRIFGYYAMGWYRQAPGKERELVAAINYSGGSTYYADSVKGRFTISRDNAKNTVYLQMNSLKPEDTAVYYCNAVRYTLLYYWGQGTQVTVSS”, which “polyreactivity (PSR sort gate)” value is on record?
Answer: high polyreactivity

Question: Which “polyreactivity (PSR sort gate)” value does the source give for “QVQLVESGGRLVQAGGSLRLSCAASGRIFNNYAMGWYRQAPGKERELVAAISGGGSTNYADSVKGRFTISRDNAKNTVYLQMNSLKPEDTAVYYCASGYLKASRDLYETVPYDYWGQGTQVTVSS” here?
Answer: low polyreactivity

Question: For “QVQLVESGGRLVQAGGSLRLSCAASGRIFRDNAMGWYRQAPGKEMELVATIRSGTNTNYADSVKGRFTISRDYAKNTVYLQMNSLKPEDTAVYYCAADLWGSHYTEYRRYPYEYDYWGQGTQVTLSS”, which “polyreactivity (PSR sort gate)” value is on record?
Answer: low polyreactivity

Question: With “QVQLVESGGRLVQAGGSLRLSCAASGRIFRYNAMGWYIQAPGKEREFVAAIRGSSSRTYYADSVKGRFTISRDNAKNTVYLQMNSLKPEDTAVYYCNAYVYYSHEDDYWGQGTQVTVSS” as the sequence, how does the “polyreactivity (PSR sort gate)” value read?
Answer: high polyreactivity

Question: With “QVQLVESGGRLVQAGGSLRLSCAASGRIFRYNAMGWYRQAPGKEREFVARISVITGRTYYADSVKGRFTISRDIAKNTVYLQMNSLKPEDTAVYYCAADAGYNYRYLLRGDYWGQGTQVTVSS” as the sequence, how does the “polyreactivity (PSR sort gate)” value read?
Answer: high polyreactivity

Question: With “QVQLVESGGRLVQAGGSLRLSCAASGRIFSRYAMGWYRPAPGKERELVATITWSGGSTYYADSVKGRFTISRDNAKNTVYLQMNSLKPEDTAVYYCNADVTYLYKMDYWGQGTQVTVSS” as the sequence, how does the “polyreactivity (PSR sort gate)” value read?
Answer: low polyreactivity

Question: Which “polyreactivity (PSR sort gate)” value does the source give for “QVQLVESGGRLVQAGGSLRLSCAASGRILRYYALGWYRQAPGKERELVASISRGGSTYYADSVKGRFTISRDNAKNTVYLQMNSLKPEDTAVYDCATEVRRSTREFGYWGQGTQVTVSS” here?
Answer: high polyreactivity

Question: For “QVQLVESGGRLVQAGGSLRLSCAASGRTFGKYVMGWYRQAPGKERELVAAISRSGGGTYYADSVKGRFTISRDNAKNTVYLQMNSLKPEDTAVYYCAKGSRSNIFQDSYNYWGQGSQVTVSS”, which “polyreactivity (PSR sort gate)” value is on record?
Answer: high polyreactivity

Question: With “QVQLVESGGRLVQAGGSLRLSCAASGRTFGYNTMGWYRPAPGKEREVVARITWSGASTYYADSVKGRFTISRDNAKNTVYLQMNSLKPEDTAVYYCNTADTVSWRSPYDYWGQGTQVTVSS” as the sequence, how does the “polyreactivity (PSR sort gate)” value read?
Answer: high polyreactivity

Question: Which “polyreactivity (PSR sort gate)” value does the source give for “QVQLVESGGRLVQAGGSLRLSCAASGRTFHRYAMGWYRQAPGKERELVAAITSSGGSTNYADSVKGRFTISRDNAKNTVYLQMNSLKPEDTAVYYCATVRYRYTSHPWSRGFDYWGQGTQVTVSS” here?
Answer: low polyreactivity

Question: For “QVQLVESGGRLVQAGGSLRLSCAASGRTFPYNAMGWSRQAPRKERELVAAITWSGGSTYYADSVKGRFTISRDNAKNTVYLQMNSLKPEDTAVYYCAADEIYGYDYWGQGTQVTVSS”, which “polyreactivity (PSR sort gate)” value is on record?
Answer: high polyreactivity

Question: Which “polyreactivity (PSR sort gate)” value does the source give for “QVQLVESGGRLVQAGGSLRLSCAASGRTIGLNGMGWYRQAPGTERELVAGISWSGGSTNYADSVKGRFTISRDNAKNTVYLQMNSLKPEDTAVYYCAADFVYYVVNDFGWSYAYEYWGQGTQVTVSS” here?
Answer: low polyreactivity

Question: For “QVQLVESGGRLVQAGGSLRLSCAASGSIFKYYVMGWYRQAPGKERELVAAISSGGGSTYYADSVKGRFTISRDNAKNSVYLQMNSLKPEDTAVYYCNKKYRSRWQGPFDYWGQATQVTVSS”, which “polyreactivity (PSR sort gate)” value is on record?
Answer: high polyreactivity

Question: For “QVQLVESGGRLVQAGGSLRLSCAASGSIFSYYAMGWYRQATGKERELVASISSAGSTNYADSVKGRFTISRDNAKNTVYLQMNSLKPEDTAVYYCNTDDDSSSTGYYSWGQGTQVTVSS”, which “polyreactivity (PSR sort gate)” value is on record?
Answer: low polyreactivity

Question: For “QVQLVESGGRLVQAGGSLRLSCAASGSIFYGYTMGWYRQAPGKERELVATISGRGGSTYYADSVKGRFTISRDNAKTTVYLQMNSLKPEDTAVYYCNSGKYYYNYGFWGQGTQVTVSS”, which “polyreactivity (PSR sort gate)” value is on record?
Answer: high polyreactivity

Question: Which “polyreactivity (PSR sort gate)” value does the source give for “QVQLVESGGRLVQAGGSLRLSCAASGSTFARNAMGWYRQAPGKERELVAAISSSGGRTYYADSVKGRFTISRDNAKNTVYLQMNSLKPEDTAVYYCAAAFSLGMYWGQGTQVTVSS” here?
Answer: high polyreactivity

Question: For “QVQLVESGGRLVQAGGSLRLSCAASGSTFQYNAMGWYRQAPGKERELVAAISLSGGSTYYADSVKGRFTISRDNAKNRVYLQMNSLKPEDTAVYYCAARQWYRYKVRFDYWGQGTQVTVSS”, which “polyreactivity (PSR sort gate)” value is on record?
Answer: high polyreactivity

Question: With “QVQLVESGGRLVQAGGSLRLSCAASGSTIYGYAMGWYRQAPGKERELVATIRSGGSTYYADSVKGRFTISRDNAKNTVYLQMNCLIPEDTAVYYCAAKRWRGYGGGYSWGQGTQVTVSS” as the sequence, how does the “polyreactivity (PSR sort gate)” value read?
Answer: high polyreactivity

Question: For “QVQLVESGGRLVQAGGSLRLSCAASGSTLFAYAMGSYRQAPGKETELVASISSGGNTNYADSVKGRFTISRDNSKNSVYLQMYSLKPEDTAVYYCNAGVPYHYPSYTYLYYYWGQGTQVTVSS”, which “polyreactivity (PSR sort gate)” value is on record?
Answer: low polyreactivity

Question: With “QVQLVESGGRLVQAGGSLRLSCAASGYIFFHYSRGWYRQAPGTERELVAANTSGGSTNYADSVKGRFTMSRDNAKNTDYLQMNSLKPEDTAVYYCAARGWINSKRLYALWGFDYWGQGTQVTVSS” as the sequence, how does the “polyreactivity (PSR sort gate)” value read?
Answer: low polyreactivity

Question: For “QVQLVESGGRLVQAGGSLRLSCAPSGIILSLYAMGWYRQAPGKVRELVATIRFSGVSTYYADSVKGRFTISRDNAKNTLYLQLTSLKPEDTAVYYCNKHLATTFTVSRFDYWGQGTQVTVSS”, which “polyreactivity (PSR sort gate)” value is on record?
Answer: low polyreactivity

Question: Which “polyreactivity (PSR sort gate)” value does the source give for “QVQLVESGGRLVQAGGSLRLSCAPSGRIFQPNVMGWSRQAPGKERELVAAIRSGSSTYYADSVKGRFTISRDNAKYSVYLQMNSLKPEDTAVYYCAARLFLPGYTRVNYLGQGTQVTVSS” here?
Answer: high polyreactivity

Question: For “QVQLVESGGRLVQAGGSLRLSCAPSGRTLGRYTMGWYRQAPGKERELVAGISSGGSTNYADSVKGRFTISRDNAKNTVYLQMNSLKPEDTAVYYCNSRGYSYGARYYYWGQGTQVTLSS”, which “polyreactivity (PSR sort gate)” value is on record?
Answer: high polyreactivity

Question: Which “polyreactivity (PSR sort gate)” value does the source give for “QVQLVESGGRLVQAGGSLRLSCDASGRTSRRNAMGWYRQAPGKERELVAGITWRGGSTYYADSVKGRFTISRDNAKNTVYLQMNSLKPEDPEVYYCAAYTYPHEYDYWGQGTQVTVSS” here?
Answer: low polyreactivity

Question: With “QVQLVESGGRLVQAGGSLRLSCDASGSIFAYYAMGGYRQAPGKERELVAAMCSGGGTYYADSVKGRFTISRDKAKTTVYLQMNSLKPEDTAVYYCAADGLWHIFYPGTGVDYWGQGTQVTVSS” as the sequence, how does the “polyreactivity (PSR sort gate)” value read?
Answer: low polyreactivity

Question: Which “polyreactivity (PSR sort gate)” value does the source give for “QVQLVESGGRLVQAGGSLRLSCPASGIIRGTNAMGGYRQAPGKERELVASITSGAGITYYADSVKGRFTISRDNAKNTVYLQMNSLKPEDTAVYYCNTYPYLWGQGTQVTVSS” here?
Answer: low polyreactivity
